Results: PMC4355161
Where two headings read alike, the source gives them in different places.

Columns and labels:
[1] = target: 0/20 H2A T11C-Cy3 nucleosomes (UniProt P06897); assay: FRET or BRET
[2] = target: 0/20 Cy3 DNA(+20) nucleosomes; assay: FRET or BRET
[3] = target: 0/20 Cy3 DNA(−25) nucleosomes; assay: FRET or BRET
[4] = target: 0/20 H2A T11C-Cy3 nucleosomes (UniProt P06897); assay: FRET or BRET; remark: listed apart in the source
[5] = target: 0/20 Cy3 DNA(+20) nucleosomes; assay: FRET or BRET; remark: listed apart in the source
[6] = target: 0/20 Cy3 DNA(−25) nucleosomes; assay: FRET or BRET; remark: listed apart in the source
[7] = target: 30/30 nucleosomes labeled with Cy3 on H4 A15C (UniProt P62799); assay: other fluorescence titration

Row | Substance | FRET ratio [1] | FRET ratio [2] | FRET ratio [3] | FRET ratio [4] | FRET ratio [5] | FRET ratio [6] | fold preference over core nucleosomes [7] [fold] | fold tighter binding than to core nucleosomes [7] [fold]
1 | SNF2h A930C-Cy5 (from UniProt O60264 1-729; O60264 730-1052) (enzyme) | 0.56 | 0.34 | 0.49 | 0.39 | 0.51 | 0.4 | – | –
2 | wild type SNF2h (from UniProt O60264 1-1052) (enzyme) | – | – | – | – | – | – | 4.9 | 2.1
